From patent US20230263916A1 (NANOMAB TECHNOLOGY, published 2023) come the findings set out here.

Test [1] deals with T1, Her2 on cells (BT474, high expression; MDA-MB-231, low expression) (UniProt P04626 23-1255, limits assumed).
T1 construct: whole, on cells; Endogenous Her2 of tumour cell lines
In words: flow cytometry on BT474 cells (high Her2), anti-HA Alexa Fluor488. How it is done:
(§1) (3) Cells were divided into 96-well plates after washing, where number of cells per sample was 3×10⁵. The dilute nanobodies were then added to each well, mixed and placed at 4° C. for 20 min.
(§2) (4) Cells were washed twice with PBS and resuspended with 100 uL PBS. […] Mouse anti-HA Alexa Fluor488 labeled antibody was then added to each sample, mixed and placed at 4° C. for 20 min.
(§3) (5) Cells were washed twice with PBS and then resuspended to the flow tube with 300 uL PBS. Samples were kept on ice in dark condition. Detection was held via machine.
For orientation: Flow cytometry measures light scatter and fluorescence of single cells or particles in a stream.

For test [2], the target named is T2, human HER2 antigen protein (human, UniProt P04626 23-652).
T2 construct: Antigen coated in the ELISA of Embodiment 5 and immobilised on the CM-5 chip in Embodiment 7; Embodiment 7 says only 'antigen protein Her2' without species or construct; also called antigen protein Her2
Briefly: Biacore, Her2 immobilised on CM-5 chip. How it is done: (1) Immobilization: the stationary phase antigen protein Her2 was immobilized on the surface of CM-5 sensor chip by carboxyl amino reaction.
(3) Chip regeneration: when next antibody was determined, the chip was washed with 10 mM Glycine.
In general terms: Surface plasmon resonance follows binding to a sensor surface in real time, without labels.

Test [3] concerns the target T3, human Her2 (ECD)-Fc protein (human, UniProt P04626 23-652).
T3 construct: extracellular domain; Made in HEK293F cells; also called hHer2 (ECD)-Fc antigen; Her2 (ECD)-Fc antigen; not shown: TEV restriction site at the C-terminal of hHer2 (ECD); IgG1 Fc of the pFUSE-IgG1 vector
Briefly: PE-ELISA, crude extract on antigen-coated plate. How it is done: (§4) (1) 10 μg Her2 (ECD)-Fc antigen (10 μg Fc in NaHCO₃ as control) dissolved in 100 mM NaHCO₃ (pH 8.2) was coupled to a NUNC plate then incubated at 4° C. overnight.
(§5) (5) The unbound antibody was washed off with PBST.
(§6) (6) When the OD value of the sample was over 3 times of the OD value of the control sample (Ratio+/−>3), the tested sample was determined to be a positive clone. […] Then all the positive clones were transferred to LA medium for plasmid extraction and sequencing.
(In general: ELISA stands for enzyme-linked immunosorbent assay.)

In test [4] the target is T3, human Her2 (ECD)-Fc protein. Briefly: PE-ELISA, A405 of antigen well over control well. How it is done: as §4, §5, §6
Test [5] has as its target T1, Her2 on cells (BT474, high expression; …). In words: flow cytometry on MDA-MB-231 cells (low Her2), anti-HA Alexa Fluor488. How it is done:
as §1, §2, §3

Numbering of substitutions follows the chain as printed.

B1: Nanobody No. 17 (VHH)
VHH: QVQLQESGGGSVQAGGSLRLSCTASGFTFDDSDMGWYRQAPGNECELVSTISSDGSTYYADSVKGRFTISQDNAKNTVYLQMNSLKPEDTAVYYCADVQIPYGLGTCESLDYWGRGTQVTVSS
notes: camel VHH from pMECs phage display vector; also called Antibody no; 17; not shown: tags (HA, His) implied by anti-HA detection and nickel column
As to B1, the positive rate in test [1] is 99.9%. In test [2], binding was put at a Kd of 6.68 nM, the koff turned out to be 0.00421 s⁻¹ and the kon amounted to 631000 M⁻¹ s⁻¹. For the same molecule, in test [3], the “A405+” value was determined as 1.88 A405. The “Ratio(+/-)” value in test [4] came to 23.8. The positive rate in test [5] came out at 12.3%.

B2: Nanobody No. 13 (VHH)
VHH: QVQLQESGGGSVQAGETLRLSCTASGFTFDDSDMGWYRQAPGNECELVSTISADGSTFYADSVKGRFTISQDNAKNTVYLQMNSLKPEDTAVYYCASPENEYELGTCEALDYWGQGTQVTVSS
notes: camel VHH from pMECs phage display vector; also called Antibody no; 13; not shown: tags (HA, His) implied by anti-HA detection and nickel column
In test [1], B2 registered a positive rate of 99.9%. Moreover, in test [2], binding was characterised by a dissociation constant (Kd) of 1.18 nM, the koff amounted to 0.0015 s⁻¹ and the kon was found to be 1.27e+06 M⁻¹ s⁻¹. In addition, in test [3], the “A405+” value came out at 2.24 A405. In addition, the “Ratio(+/-)” value in test [4] worked out at 25.1. The same molecule gave a positive rate in test [5] of 14.2%.

B3: Nanobody No. 26 (VHH)
VHH: QVQLQESGGGSVQAGETLRLSCTASGFTFDDSDMGWYRQAPGNECELVSSISSDGSTYYADSVKGRFTISQDNAKNTVYLQMNSLKPEDTGVYYCAAEGHRYELGTCAALDYWGRGTQVTVSS
notes: camel VHH from pMECs phage display vector; also called Antibody no; 26; not shown: tags (HA, His) implied by anti-HA detection and nickel column
B3 registered a positive rate in test [1] of 99.9%. Also, in test [2], the Kd amounted to 1.31 nM, the koff is 0.00112 s⁻¹ and the association rate constant (kon) stood at 857000 M⁻¹ s⁻¹. Besides, the “A405+” value in test [3] was 1.9 A405. Further, the “Ratio(+/-)” value in test [4] worked out at 21.1. In addition, the positive rate in test [5] was 16.7%.

B4: Nanobody No. 23 (VHH)
VHH: QVQLQESGGGSVQAGGSLKLSCSASGFTFDDTDMGWYRQAPGNECELVSTISSDGTTYYTDSVKGRFTISQDNAKNTVYLQMNSLKPEDTAVYYCAAINSGYELGTCESLDYWGRGTQVTVSS
notes: camel VHH from pMECs phage display vector; also called Antibody no; 23; not shown: tags (HA, His) implied by anti-HA detection and nickel column
For the molecule B4, the positive rate in test [1] was 99.9%. In test [2], this molecule had a Kd of 3.73 nM, a koff of 0.00255 s⁻¹ and a kon of 682000 M⁻¹ s⁻¹. Further, the “A405+” value in test [3] was found to be 1.77 A405. Also, the “Ratio(+/-)” value in test [4] is 17.1. In addition, the positive rate in test [5] was 11.5%.

B5: Nanobody No. 22 (VHH)
VHH: B4 VHH with K19R, S23T, T32S, T50R, S53R, T60A, A97D
notes: camel VHH from pMECs phage display vector; also called Antibody no; 22; not shown: tags (HA, His) implied by anti-HA detection and nickel column
Consider B5, for which the positive rate in test [1] turned out to be 99.7%. In addition, in test [2], the Kd was determined as 1.98 nM, the koff was 0.0019 s⁻¹ and the kon was found to be 957000 M⁻¹ s⁻¹. In test [3], the “A405+” value was determined as 1.78 A405. The “Ratio(+/-)” value in test [4] was 21.3. For the same molecule, the positive rate in test [5] came to 5.8%.

B6: Nanobody No. 38 (VHH)
VHH: QVQLQESGGGSVQAGGSLRLSCAASGFTYTGYCMGWFRQAPGKEREGVATVDSDGDTSYADSVKGRFTISKDNAKNTLYLQMNSLKPEDTAMYYCAADFSRWHLCSTSLATLGYWGQGTQVTVSS
notes: also called 38; not shown: tags (HA, His) implied by anti-HA detection and nickel column
In the case of B6, the “A405+” value in test [3] came out at 2.14 A405. Moreover, in test [4], the “Ratio(+/-)” value was found to be 21.8.

B7: Nanobody No. 35 (VHH)
VHH: QVQLQESGGGLVQPGGSLRLSCAASGFTFDDVDMGWYRQAPGNECELVSTISSDGSTYYADSVKGRFTISQDNAKNTVYLQMNSLKPEDTAMYYCAAARYSDYEGMCGYWSQGTQVTVSS
notes: also called 35; not shown: tags (HA, His) implied by anti-HA detection and nickel column
Regarding B7, the “A405+” value in test [3] was 1.99 A405. Moreover, the “Ratio(+/-)” value in test [4] worked out at 21.

B8: Nanobody No. 36 (VHH)
VHH: B7 VHH with L11S, P14A, G16E, A23R, A24T, T28S
notes: also called 36; not shown: tags (HA, His) implied by anti-HA detection and nickel column
Regarding B8, in test [3], the “A405+” value worked out at 2.22 A405. Also, in test [4], the “Ratio(+/-)” value turned out to be 21.6.

B9: Nanobody No. 37 (VHH)
VHH: B7 VHH with L11S, P14A, G16E, S17T, A23T, A24V, V32A, E44Q, S56I, I69V
notes: also called 37; not shown: tags (HA, His) implied by anti-HA detection and nickel column
In the case of B9, the “A405+” value in test [3] amounted to 2.1 A405. Moreover, the “Ratio(+/-)” value in test [4] was found to be 19.6.

B10: Nanobody No. 39 (VHH)
VHH: QVQLQESGGGSVQAGGSLRLSCAASGYTYTGYCMGWFRQAPGKEREGVATIDSDGDTSYADSVKGRFTISKDNAKNTLYLQMNSLKPEDTAMYYCAADFRRWHLCSSSFREDGMDYWGKGTQVTVSS
notes: also called 39; not shown: tags (HA, His) implied by anti-HA detection and nickel column
With B10, the “A405+” value in test [3] came to 1.86 A405. Moreover, in test [4], the “Ratio(+/-)” value came to 17.8.

B11: Nanobody No. 40 (VHH)
VHH: B10 VHH with G16E, S17T, P41T, S58T, A74G, R110Q, D112Y, G113D
notes: also called 40; not shown: tags (HA, His) implied by anti-HA detection and nickel column
As to B11, the “A405+” value in test [3] is 1.57 A405. In test [4], the “Ratio(+/-)” value worked out at 19.1.

B12: Nanobody No. 9 (VHH)
VHH: QVQLQESGGGSVQAGETLRLSCTASGFTFDDSDMGWYRQAPGSECELVSTISSDGNTYYSNSVKGRFTISQDNAKNTVYLQMNSLKPEDTAVYYCAADDQHYELGTCEALDYWGRGTQVTVSS
notes: camel VHH from pMECs phage display vector; also called Antibody no; not shown: tags (HA, His) implied by anti-HA detection and nickel column
Molecule B12 gave a positive rate in test [1] of 99.8%. In test [2], this molecule displayed a Kd of 3.6 nM, an off-rate constant (koff) of 0.00397 s⁻¹ and a kon of 1.11e+06 M⁻¹ s⁻¹. The “A405+” value in test [3] was 2.15 A405. Also, the “Ratio(+/-)” value in test [4] came out at 24.3. Moreover, in test [5], the positive rate came out at 9.5%.

B13: Nanobody No. 10 (VHH)
VHH: B12 VHH with R19K, D33T, G35A, S43N, E46K, N56S, S60A, N61D, H101N
notes: camel VHH from pMECs phage display vector; also called Antibody no; 10; not shown: tags (HA, His) implied by anti-HA detection and nickel column
As for B13, in test [1], the positive rate worked out at 99.7%. Moreover, in test [2], the Kd is 6.47 nM, the koff came out at 0.00457 s⁻¹ and the kon came to 706000 M⁻¹ s⁻¹. In addition, the “A405+” value in test [3] turned out to be 1.63 A405. The “Ratio(+/-)” value in test [4] was found to be 22.4. In test [5], this molecule registered a positive rate of 10.6%.

The Kd is the equilibrium constant for the complex coming apart. What is called koff is the first-order rate constant of dissociation. Usually kon stands for the rate constant with which the complex forms. A low value points to slower complex formation.
